The source of these data is patent US20250026850A1 (TRISHULA THERAPEUTICS, published 2025).

By Kd is commonly meant the equilibrium constant for the complex coming apart. A higher Kd goes with lower affinity. For orientation: koff means the rate constant with which the complex falls apart. In general, kon refers to the second-order rate constant of association. Read a low kon as slower complex formation.

In assay [1] the target is T1, cynomolgus macaque (Macaca fascicularis) CD39 on cells (cynomolgus macaque (Macaca fascicularis), UniProt P49961 7-510 (human entry)).
T1 construct: CHO cells engineered to express cyno CD39, or primary cyno B cells and monocytes; also called cyno CD39; cCD39
T1 chain: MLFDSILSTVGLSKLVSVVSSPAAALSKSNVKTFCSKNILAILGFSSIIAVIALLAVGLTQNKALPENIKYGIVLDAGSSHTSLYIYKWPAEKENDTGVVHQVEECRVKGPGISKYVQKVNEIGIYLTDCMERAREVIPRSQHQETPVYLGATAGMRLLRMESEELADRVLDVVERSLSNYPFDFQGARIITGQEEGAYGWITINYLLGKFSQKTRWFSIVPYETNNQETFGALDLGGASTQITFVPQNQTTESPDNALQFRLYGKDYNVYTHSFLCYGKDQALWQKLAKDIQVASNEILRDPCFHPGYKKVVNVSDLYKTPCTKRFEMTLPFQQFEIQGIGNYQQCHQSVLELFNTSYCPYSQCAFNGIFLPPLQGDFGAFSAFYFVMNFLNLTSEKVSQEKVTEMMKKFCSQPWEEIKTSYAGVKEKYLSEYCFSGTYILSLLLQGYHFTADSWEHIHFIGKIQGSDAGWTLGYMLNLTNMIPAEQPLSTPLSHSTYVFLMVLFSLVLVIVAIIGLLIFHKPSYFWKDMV
Description: flow cytometry, 100 nM IgG, cCD39-CHO cells; MFI ratio to parental CHO. The method, then: (§1) 100 nanomolar IgGs (each antibody is indicated as a unique clone number in the FIG.) were incubated at […] 30 minutes on ice in phosphate buffered saline (PBS) with parental CHO cells or CHO cells engineered to express either human or cynomolgus macaque (Macaca fascicularis) CD39 (CHO CD39 cells). Cells were then washed with ice cold PBS and incubated with a fluorescently labeled goat-anti-human IgG for 20 minutes on ice. Cells were washed and resuspended in ice cold PBS prior to analysis by flow cytrometry.
(In general: In flow cytometry, cells or beads pass a laser one at a time.)

In assay [2] the target is T2, rhCD39-ECD-His (R&D Systems) (human, UniProt P49961 38-478).
T2 construct: Bought protein; that entry runs on through the C-terminal transmembrane and cytoplasmic residues; also called recombinant human CD39 extracellular domain; soluble recombinant human CD39 (ENTDP1) ECD; not shown: His tag
T2 sequence: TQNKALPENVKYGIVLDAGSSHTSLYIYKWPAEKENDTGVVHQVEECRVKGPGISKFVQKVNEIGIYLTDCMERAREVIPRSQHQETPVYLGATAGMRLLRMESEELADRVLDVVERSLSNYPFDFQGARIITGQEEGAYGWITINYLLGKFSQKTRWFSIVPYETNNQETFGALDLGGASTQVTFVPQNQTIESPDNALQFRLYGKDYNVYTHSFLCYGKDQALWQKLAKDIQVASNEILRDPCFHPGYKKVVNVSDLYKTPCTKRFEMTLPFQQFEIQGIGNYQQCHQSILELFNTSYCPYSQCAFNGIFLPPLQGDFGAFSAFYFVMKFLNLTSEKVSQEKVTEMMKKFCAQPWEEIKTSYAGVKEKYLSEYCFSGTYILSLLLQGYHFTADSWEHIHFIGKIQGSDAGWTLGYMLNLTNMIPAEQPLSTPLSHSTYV
Description: BLI (Octet), IgG on anti-human Fc sensor, rhCD39-ECD-His 10-300 nM, 1:1 fit. The method, then:
The kinetic data was globally fit with a simple 1:1 Langmuir binding model to yield on-rate (kon) and off-rate (koff) values. The equilibrium dissociation constants (KD) were calculated from the kon and koff values.
Binding kinetics were measured using the Octet Red96 system (ForteBio) at 25° C. in running buffer (1× Pall ForteBio Kinetics Buffer diluted into PBS or Tris pH 7.4). […] After a short baseline step in running buffer, the sensors were exposed to varying concentrations (10-300 nM) of rhCD39-ECD-His (R&D Systems) for the association step. Dissociation of the complex was monitored upon exposure of the sensors to running buffer once again. Data was processed using ForteBio Octet software with baseline subtraction, global fit and 1:1 binding model to obtain association and dissociation rates. KD was calculated from the ratio of kd to kₐ.

The next assay has as its target T3, human CD39 on cells (human, UniProt P49961 1-510).
T3 construct: One molecule for all cells that carry human CD39; the cell is named under assay; also called hCD39; cellular CD39
T3 sequence: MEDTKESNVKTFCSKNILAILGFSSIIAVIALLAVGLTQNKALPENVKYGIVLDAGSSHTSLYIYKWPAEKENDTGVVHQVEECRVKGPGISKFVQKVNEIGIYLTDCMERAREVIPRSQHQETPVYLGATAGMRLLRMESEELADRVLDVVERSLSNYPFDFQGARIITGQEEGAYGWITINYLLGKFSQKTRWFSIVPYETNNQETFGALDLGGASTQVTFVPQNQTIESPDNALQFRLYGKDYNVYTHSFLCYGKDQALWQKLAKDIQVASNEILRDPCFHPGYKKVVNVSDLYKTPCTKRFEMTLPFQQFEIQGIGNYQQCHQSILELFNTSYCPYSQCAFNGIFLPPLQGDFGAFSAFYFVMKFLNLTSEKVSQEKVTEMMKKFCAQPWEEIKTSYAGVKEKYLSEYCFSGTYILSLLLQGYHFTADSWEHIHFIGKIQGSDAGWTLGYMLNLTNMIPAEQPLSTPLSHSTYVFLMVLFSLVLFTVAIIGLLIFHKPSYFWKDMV
Description: flow cytometry, 100 nM IgG, hCD39-CHO cells; MFI ratio to parental CHO. The method, then: as §1

B1: 27590 (antibody, V domains shown)
VH: QVQLVQSGAEVKKPGSSVKVSCKASGGTFSNYAISWVRQAPGQGLEWMGGIIPIFGTANYAQKFQGRVTITADESTSTAYMELSSLRSEDTAVYYCARGPTVTATTSIGTHNWFDPWGQGTLVTVSS
VL: EIVLTQSPATLSLSPGERATLSCRASQSVSSYLAWYQQKPGQAPRLLIYDASNRATGIPARFSGSGSGTDFTLTISSLEPEDFAVYYCQQRNFYPPTFGGGTKVEIK
With B1, the “Cell Binding (FOB)” value in assay [1] stood at 44 FOB. In assay [2], the equilibrium dissociation constant (Kd) came to 131 nM, the koff came out at 0.023 s⁻¹ and the on-rate constant (kon) came out at 176000 M⁻¹ s⁻¹. Besides, the “Cell Binding (FOB)” value in the assay with human CD39 on cells came to 33 FOB.

B2: 27596 (antibody, V domains shown)
VH: QVQLVQSGAEVKKPGSSVKVSCKASGGTFSSYAISWVRQAPGQGLEWMGGIIPIFGTANYAQKFQGRVTITADESTSTAYMELSSLRSEDTAVYYCARDPLGIRKHWFDPWGQGTLVTVSS
VL: EIVMTQSPATLSLSPGERATLSCRASQSVSSYLAWYQQKPGQAPRLLIYDASNRATGIPARFSGSGSGTDFTLTISSLEPEDFAVYYCQQHTVWPITFGGGTKVEIKR
Consider B2, for which the “Cell Binding (FOB)” value in assay [1] worked out at 257 FOB. Besides, in assay [2], the Kd was found to be 31.1 nM, the koff was 0.0533 s⁻¹ and the kon was 1.72e+06 M⁻¹ s⁻¹. Further, the “Cell Binding (FOB)” value with human CD39 on cells was determined as 252 FOB.

B3: 27597 (antibody, V domains shown)
VH: QVQLVQSGAEVKKPGSSVKVSCKASGGTFSSYAISWVRQAPGQGLEWMGSIIPIFGTANYAQKFQGRVTITADESTSTAYMELSSLRSEDTAVYYCAREGRGYDSSRYYKFWFDPWGQGTLVTVSS
VL: EIVLTQSPATLSLSPGERATLSCRASQSVSSYLAWYQQKPGQAPRLLIYDASNRATGIPARFSGSGSGTDFTLTISSLEPEDFAVYYCQQFVLWPRTFGGGTKVEIKR
Take B3: the “Cell Binding (FOB)” value in assay [1] came out at 908 FOB. Further, in assay [2], binding was put at a Kd of 335 nM, the koff came to 0.0914 s⁻¹ and the on-rate constant (kon) came out at 273000 M⁻¹ s⁻¹. Besides, in the assay with human CD39 on cells, the “Cell Binding (FOB)” value was found to be 799 FOB.

B4: 27589 (antibody, V domains shown)
VH: QVQLVQSGAEVKKPGSSVKVSCKASGGTFSSYAISWVRQAPGQGLEWMGGIIPIFGTANYAQKFQGRVTITADESTSTAYMELSSLRSEDTAVYYCARDSGYHRHYSDYWGQGTLVTVSS
VL: DIQMTQSPSTLSASVGDRVTITCRASQSISSWLAWYQQKPGKAPKLLIYKASSLESGVPSRFSGSGSGTEFTLTISSLQPDDFATYYCQQYGLFPITFGGGTKVEIKR
As to B4, the “Cell Binding (FOB)” value in assay [1] came to 531 FOB. Besides, in assay [2], the dissociation constant (Kd) came to 191 nM, the off-rate constant (koff) worked out at 0.0385 s⁻¹ and the kon was 202000 M⁻¹ s⁻¹. Also, the “Cell Binding (FOB)” value with human CD39 on cells came out at 311 FOB.

B5: 29852 (antibody, V domains shown)
VH: QVQLVQSGAEVKKPGSSVKVSCKASGGTFSAMAISWVRQAPGQGLEWMGGILPIAGTANYAQKFQGRVTITADESTSTAYMELSSLRSEDTAVYYCARGGAKYASTYGMDVWGQGTTVTVSS
VL: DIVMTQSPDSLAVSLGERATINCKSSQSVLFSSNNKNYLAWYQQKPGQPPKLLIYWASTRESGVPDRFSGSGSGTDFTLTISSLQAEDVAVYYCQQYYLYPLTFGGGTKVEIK
Turning to B5, the “Cell Binding (FOB)” value in assay [1] is 1420 FOB. In assay [2], this molecule yielded a Kd of 0.266 nM, a koff of 0.000134 s⁻¹ and a kon of 503000 M⁻¹ s⁻¹. Further, the “Cell Binding (FOB)” value in the assay with human CD39 on cells worked out at 337 FOB.

B6: 28347 (antibody, V domains shown)
VH: QVQLVQSGAEVKKPGSSVKVSCKASGGTFSSLAISWVRQAPGQGLEWMGGIIPIFGTANYAQKFQGRVTITADESTNTAYMELSSLRSEDTAVYYCARGGAKYASTYGMDVWGQGTTVTVSS
VL: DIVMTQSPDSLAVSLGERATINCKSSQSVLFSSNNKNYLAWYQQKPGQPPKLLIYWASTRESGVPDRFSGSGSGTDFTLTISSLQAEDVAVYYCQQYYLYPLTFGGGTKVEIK
As for B6, in assay [1], the “Cell Binding (FOB)” value worked out at 1340 FOB. Also, in assay [2], the dissociation constant Kd amounted to 9.05 nM, the koff was determined as 0.00815 s⁻¹ and the on-rate constant (kon) came to 901000 M⁻¹ s⁻¹. In addition, the “Cell Binding (FOB)” value with human CD39 on cells is 1020 FOB.

B7: 29851 (antibody, V domains shown)
VH: QVQLVQSGAEVKKPGSSVKVSCKASGGTFASLAISWVRQAPGQGLEWMGGILPIFGEANYAQKFQGRVTITADESTSTAYMELSSLRSEDTAVYYCARGGAKYASTYGMDVWGQGTTVTVSS
VL: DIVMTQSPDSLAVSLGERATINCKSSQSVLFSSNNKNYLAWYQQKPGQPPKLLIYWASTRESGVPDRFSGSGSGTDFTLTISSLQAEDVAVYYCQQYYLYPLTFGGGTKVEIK
B7: the “Cell Binding (FOB)” value in assay [1] came out at 398 FOB. In addition, in assay [2], binding was characterised by a dissociation constant (Kd) of 1.23 nM, the off-rate (koff) was determined as 0.000385 s⁻¹ and the on-rate constant (kon) stood at 313000 M⁻¹ s⁻¹. Moreover, the “Cell Binding (FOB)” value in the assay with human CD39 on cells came out at 129 FOB.
